According to doi:10.1101/2021.10.03.462214 (bioRxiv, 2021):

Target: UBg_8UBgg (UniProt P0CG47, G76 deletion)
Assay: cryo-EM structure

binding result: binds
B1: Rpn10 (natural protein)
chain: MVLESTMVCVDNSEYMRNGDFLPTRLQAQQDAVNIVCHSKTRSNPENNVGLITLANDCEVLTTLTPDTGRILSKLHTVQPKGKITFCTGIRVAHLALKHRQGKNHKMRIIAFVGSPVEDNEKDLVKLAKRLKKEKVNVDIINFGEEEVNTEKLTAFVNTLNGKDGTGSHLVTVPPGPSLADALISSPILAGEGGAMLGLGASDFEFGVDPSADPELALALRVSMEEQRQRQEEEARRAAAASAAEAGIATTGTEDSDDALLKMTISQQEFGRTGLPDLSSMTEEEQIAYAMQMSLQGAEFGQAESADIDASSAMDTSEPAKEEDDYDVMQDPEFLQSVLENLPGVDPNNEAIRNAMGSLASQATKDGKKDKKEEDKK
